In article PMC10397247:
Where two headings read alike, the source gives them in different places. Blank lines part the entries; values can stand above or below the binder they belong to.

Legend:
Assay in all cases: two-hybrid library CCmax;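 further: natural log of median RNA to DNA barcode read ratio; higher means stronger binding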
4H2354-AA = target: T1, 4H2354-AA; conditions: mean of both orientations
T1 chain: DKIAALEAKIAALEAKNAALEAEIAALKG

4H3427-AA = target: T2, 4H3427-AA; conditions: mean of both orientations
T2 chain: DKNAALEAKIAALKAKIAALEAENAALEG

4H3655-AA = target: T3, 4H3655-AA
T3 chain: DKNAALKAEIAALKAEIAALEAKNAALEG

4H2944-AA = target: T4, 4H2944-AA; conditions: mean of both orientations
T4 chain: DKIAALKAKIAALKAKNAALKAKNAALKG

4H342-AA = target: T5, 4H342-AA; conditions: mean of both orientations
T5 chain: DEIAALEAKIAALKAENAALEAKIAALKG

4H454-AA = target: T6, 4H454-AA; conditions: mean of both orientations
T6 chain: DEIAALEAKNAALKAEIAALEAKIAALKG

4H234-AA = target: T7, 4H234-AA; conditions: mean of both orientations
T7 chain: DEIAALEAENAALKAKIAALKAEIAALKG

4H48-AA = target: T8, 4H48-AA; conditions: mean of both orientations
T8 chain: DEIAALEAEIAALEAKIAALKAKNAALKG

4H2277-AA = target: T9, 4H2277-AA; conditions: mean of both orientations
T9 chain: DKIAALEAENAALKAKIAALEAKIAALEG

4H2151-AA = target: T10, 4H2151-AA
T10 chain: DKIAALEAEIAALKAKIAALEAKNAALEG

4H2165-AA = target: T11, 4H2165-AA; conditions: mean of both orientations
T11 chain: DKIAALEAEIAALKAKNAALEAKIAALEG

4H2642-AA = target: T12, 4H2642-AA; conditions: mean of both orientations
T12 chain: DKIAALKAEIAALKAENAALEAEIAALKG

4H678-AA = target: T13, 4H678-AA; conditions: mean of both orientations
T13 chain: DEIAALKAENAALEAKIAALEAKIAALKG

4H993-AA = target: T14, 4H993-AA; conditions: mean of both orientations
T14 chain: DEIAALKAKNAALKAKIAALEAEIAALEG

4H2393-AA = target: T15, 4H2393-AA; conditions: mean of both orientations
T15 chain: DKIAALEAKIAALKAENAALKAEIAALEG

4H906-AA = target: T16, 4H906-AA; conditions: mean of both orientations
T16 chain: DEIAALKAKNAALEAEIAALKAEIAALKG

4H3112-AA = target: T17, 4H3112-AA; conditions: mean of both orientations
T17 chain: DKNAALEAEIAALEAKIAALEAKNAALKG

4H429-AA = target: T18, 4H429-AA; conditions: mean of both orientations
T18 chain: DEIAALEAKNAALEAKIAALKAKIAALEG

4H2837-AA = target: T19, 4H2837-AA; conditions: mean of both orientations
T19 chain: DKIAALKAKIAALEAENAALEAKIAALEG

4H3606-AA = target: T20, 4H3606-AA; conditions: mean of both orientations
T20 chain: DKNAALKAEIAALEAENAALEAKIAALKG

4H3343-AA = target: T21, 4H3343-AA; conditions: mean of both orientations
T21 chain: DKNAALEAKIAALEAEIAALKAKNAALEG

4H3627-AA = target: T22, 4H3627-AA; conditions: mean of both orientations
T22 chain: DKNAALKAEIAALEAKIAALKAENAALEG

4H2754-AA = target: T23, 4H2754-AA; conditions: mean of both orientations
T23 chain: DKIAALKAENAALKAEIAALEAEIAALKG

4H2883-AA = target: T24, 4H2883-AA; conditions: mean of both orientations
T24 chain: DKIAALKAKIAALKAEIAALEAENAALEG

4H794-AA = target: T25, 4H794-AA; conditions: mean of both orientations
T25 chain: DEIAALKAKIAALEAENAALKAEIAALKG

4H717-AA = target: T26, 4H717-AA; conditions: mean of both orientations
T26 chain: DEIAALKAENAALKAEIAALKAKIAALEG

4H2505-AA = target: T27, 4H2505-AA; conditions: mean of both orientations
T27 chain: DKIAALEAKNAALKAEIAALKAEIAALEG

4H3844-AA = target: T28, 4H3844-AA; conditions: mean of both orientations
T28 chain: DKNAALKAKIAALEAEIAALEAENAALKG

4H2617-AA = target: T29, 4H2617-AA; conditions: mean of both orientations
T29 chain: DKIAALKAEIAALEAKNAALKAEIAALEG

4H566-AA = target: T30, 4H566-AA; conditions: mean of both orientations
T30 chain: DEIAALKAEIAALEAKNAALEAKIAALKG

4H2466-AA = target: T31, 4H2466-AA; conditions: mean of both orientations
T31 chain: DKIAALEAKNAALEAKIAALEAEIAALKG

4H605-AA = target: T32, 4H605-AA; conditions: mean of both orientations
T32 chain: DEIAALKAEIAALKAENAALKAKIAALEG

4H317-AA = target: T33, 4H317-AA; conditions: mean of both orientations
T33 chain: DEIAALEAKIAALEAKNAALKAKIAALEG

4H2190-AA = target: T34, 4H2190-AA; conditions: mean of both orientations
T34 chain: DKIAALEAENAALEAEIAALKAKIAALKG

4H2729-AA = target: T35, 4H2729-AA; conditions: mean of both orientations
T35 chain: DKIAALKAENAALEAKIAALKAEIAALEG

4H2949-AA = target: T36, 4H2949-AA; conditions: mean of both orientations
T36 chain: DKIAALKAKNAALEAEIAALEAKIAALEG

4H881-AA = target: T37, 4H881-AA; conditions: mean of both orientations
T37 chain: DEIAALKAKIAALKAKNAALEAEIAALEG

4H780-AA = target: T38, 4H780-AA; conditions: mean of both orientations
T38 chain: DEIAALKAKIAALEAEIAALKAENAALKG

4H335-AA = target: T39, 4H335-AA; conditions: mean of both orientations
T39 chain: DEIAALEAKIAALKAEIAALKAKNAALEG

4H3921-AA = target: T40, 4H3921-AA; conditions: mean of both orientations
T40 chain: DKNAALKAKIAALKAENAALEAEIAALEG

4H249-AA = target: T41, 4H249-AA
T41 chain: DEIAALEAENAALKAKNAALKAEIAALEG

4H2575-AA = target: T42, 4H2575-AA; conditions: mean of both orientations
T42 chain: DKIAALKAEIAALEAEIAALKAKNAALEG

4H2078-AA = target: T43, 4H2078-AA
T43 chain: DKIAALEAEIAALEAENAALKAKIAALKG

interaction score (4H2354-AA): -1.44 | interaction score (4H3427-AA): -1.02 | interaction score (4H3655-AA; mean of both orientations): -0.942 | interaction score (4H2944-AA): -1.39 | interaction score (4H342-AA): -1.26 | interaction score (4H454-AA): -1.11 | interaction score (4H234-AA): -1.58 | interaction score (4H48-AA): 0.747 | interaction score (4H2277-AA): -1.38 | interaction score (4H2151-AA): 1.45 | interaction score (4H2165-AA): -0.932 | interaction score (4H2642-AA): -1.42 | interaction score (4H678-AA): -1.37 | interaction score (4H993-AA): -1.43 | interaction score (4H2393-AA): -1.54 | interaction score (4H906-AA): -1.28 | interaction score (4H3112-AA): -0.356 | interaction score (4H429-AA): -1.48 | interaction score (4H2837-AA): -1.4 | interaction score (4H3606-AA): -1.24 | interaction score (4H3343-AA): -1.19 | interaction score (4H3627-AA): -0.182 | interaction score (4H2754-AA): -1.27 | interaction score (4H2883-AA): 0.105 | interaction score (4H794-AA): -1.95 | interaction score (4H717-AA): -1.61 | interaction score (4H2505-AA): -1.6 | interaction score (4H3844-AA): -0.871 | interaction score (4H2617-AA): -0.476 | interaction score (4H566-AA): -1.47 | interaction score (4H2466-AA): -1.42 | interaction score (4H605-AA): -1.4 | interaction score (4H317-AA): -0.983 | interaction score (4H2190-AA): -1.15 | interaction score (4H2729-AA): -0.63 | interaction score (4H2949-AA): -0.904 | interaction score (4H881-AA): -1.51
Binder: DKIAALEAEIAALKAKIAALEAKNAALEG [4H2151-AA]

interaction score (4H2354-AA): -0.00435 | interaction score (4H3427-AA): -0.664 | interaction score (4H3655-AA): -1.22 | interaction score (4H2944-AA): 0.298 | interaction score (4H342-AA): 2.14 | interaction score (4H454-AA): -0.599 | interaction score (4H234-AA): -0.505 | interaction score (4H48-AA): 0.504 | interaction score (4H2277-AA): -1.09 | interaction score (4H780-AA): -1.14 | interaction score (4H2151-AA; mean of both orientations): -1.39 | interaction score (4H2165-AA): 0.246 | interaction score (4H2642-AA): 2.25 | interaction score (4H678-AA): -0.466 | interaction score (4H993-AA): -1.03 | interaction score (4H335-AA): 0.35 | interaction score (4H2393-AA): 2.47 | interaction score (4H906-AA): -0.59 | interaction score (4H3112-AA): -0.952 | interaction score (4H429-AA): 1.79 | interaction score (4H2837-AA): 1.93 | interaction score (4H3606-AA): -0.297 | interaction score (4H3343-AA): -1.08 | interaction score (4H3627-AA): -0.14 | interaction score (4H2754-AA): 0.637 | interaction score (4H3921-AA): 2.02 | interaction score (4H249-AA): 0.347 | interaction score (4H2883-AA): 0.158 | interaction score (4H794-AA): 1.84 | interaction score (4H717-AA): -1.62 | interaction score (4H2505-AA): 1.62 | interaction score (4H2575-AA): -0.721 | interaction score (4H3844-AA): -0.801 | interaction score (4H2617-AA): 2.35 | interaction score (4H566-AA): -1.05 | interaction score (4H2466-AA): -0.982 | interaction score (4H605-AA): 1.68 | interaction score (4H317-AA): 1.93 | interaction score (4H2078-AA): 1.98 | interaction score (4H2190-AA): 1.33 | interaction score (4H2729-AA): 0.661 | interaction score (4H2949-AA): -1.02 | interaction score (4H881-AA): 2.31
Binder: DKIAALEAEIAALEAENAALKAKIAALKG [4H2078-AA]
